Drawing on paper PMC8967061, this text covers Kd for 2 substances.

The experiment concerns the target Factor H domains 19-20 (human) (UniProt P08603). The experiment in a line: MST; FH19-20 labelled with RED-tris-NTA dye (300 nM stock, mixed 1:1 with ligand), FhbA proteins titrated, PBS/0.025% Tween-20, 22 C.

Factor H domains 19-20 (human), sequence (P08603 1104-1231): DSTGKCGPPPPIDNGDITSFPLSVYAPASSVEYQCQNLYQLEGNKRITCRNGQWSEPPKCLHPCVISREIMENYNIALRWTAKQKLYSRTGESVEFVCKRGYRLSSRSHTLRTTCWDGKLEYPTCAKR

“FhbA homologue from Borrelia duttonii, wild type (natural protein)” showed a dissociation constant Kd of 1.06 µM. In other words, the single-digit micromolar range. Substance “BhFhbA Phe154Ala (from UniProt W5SB08 44-202) (domain or fragment)” came in with a Kd of 6 µM. This Kd lies about 5.7-fold higher than the previous one.

What is called Kd is the free concentration of one partner at which half of the binding sites on the other are occupied at equilibrium, for simple one-to-one binding.
